For two molecules, mean IC50 of mSOD1 mRNA downregulation, free uptake on Neuro-2a cells and Kd results are on record in patent EP4480965A1, “TRANSFERRIN RECEPTOR-BINDING MOLECULES, CONJUGATES THEREOF AND THEIR USES TO PREVENT OR TREAT CNS DISEASES” (Vect-Horus, priority 2023, dated 2024).

For assay [1], the target named is murine TfR expressed by murine neuroblastoma Neuro-2a cells (mouse) (UniProt Q62351). Put plainly: cell-based or functional assay.
Assay [2] addresses mouse transferrin receptor fused to EGFP, expressed on CHO cells (mouse) (UniProt Q62351). Put plainly: cell-based assay on mTfR, apparent Kd.

Chain of mouse transferrin receptor fused to EGFP, expressed on CHO cells (mouse) (Q62351 whole entry, the tested form may be a part): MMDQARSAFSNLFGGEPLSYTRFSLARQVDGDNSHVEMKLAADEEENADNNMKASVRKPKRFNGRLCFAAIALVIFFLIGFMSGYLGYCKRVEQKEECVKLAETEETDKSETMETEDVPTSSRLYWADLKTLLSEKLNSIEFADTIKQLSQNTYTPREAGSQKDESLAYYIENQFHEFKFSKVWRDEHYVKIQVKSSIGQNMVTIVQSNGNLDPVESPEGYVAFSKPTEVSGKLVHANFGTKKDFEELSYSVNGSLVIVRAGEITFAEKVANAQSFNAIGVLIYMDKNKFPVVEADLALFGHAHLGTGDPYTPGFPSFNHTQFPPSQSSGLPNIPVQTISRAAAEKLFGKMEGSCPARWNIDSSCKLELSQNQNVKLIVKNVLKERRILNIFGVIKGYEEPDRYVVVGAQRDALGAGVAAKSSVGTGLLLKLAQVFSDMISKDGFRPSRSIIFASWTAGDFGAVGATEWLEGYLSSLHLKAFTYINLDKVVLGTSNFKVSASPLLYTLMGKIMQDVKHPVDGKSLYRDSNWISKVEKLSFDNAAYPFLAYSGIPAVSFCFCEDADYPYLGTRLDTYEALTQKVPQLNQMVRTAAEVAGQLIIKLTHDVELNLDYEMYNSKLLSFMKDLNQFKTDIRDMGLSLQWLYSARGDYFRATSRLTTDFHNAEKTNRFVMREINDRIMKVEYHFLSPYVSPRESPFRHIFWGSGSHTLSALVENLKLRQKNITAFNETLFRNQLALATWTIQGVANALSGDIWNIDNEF
Chain of murine TfR expressed by murine neuroblastoma Neuro-2a cells (mouse) (Q62351 whole entry, the tested form may be a part): as above

B1: C5-hFc-siSOD1m-5'VP (protein, part only; not given: Fc knob and hole arms, siRNA, part only)
chain, part: EVQLVESGGGVVQPGGSLKLSCVASGTDFSINFIRWYRQAPGKQREFVAGFTATGNTNYADSMKGRFTISRDNTKNAVYLQIDSLKPEDTAVYYCYMLDKWGQGTQVTVSSAAAEQKLISEEDLNGAAHHHHHHGS
B1 had a mean IC50 of mSOD1 mRNA downregulation, free uptake on Neuro-2a cells in assay [1] of 8.7 nM.

B2: B8h1-NT(8-13) (protein, part only; not given: nothing essential, part only)
chain, part: EVQLVESGGGVVQPGGSLRLSCAASGEIFSINFMRWYRQAPGKGLEWVAGFTRDGSTNYPDSVKGRFTISRDNAKNTVYLQMNSLRPEDTAVYYCYMLDTWGQGTQVTVSSHHHHHHGGGGSGGGGS
On to B2, for which, in assay [2], the Kd came out at 2.8 nM.
